Consider 17 substances from paper PMC8802549 (The Journal of Immunology Author Choice, 2022).

pKd: −log10 of the molar value. Where two headings read alike, the source gives them in different places.

As a reminder, the pKd is the negative decadic logarithm of the Kd, by convention in mol/L.

The target of assay [1] is BoLA-1*023:01 MHC class I molecule with bovine β2-microglobulin (bovine) (UniProt P01888). Briefly: ELISA. For orientation: In an ELISA, binding on a coated surface is turned into a signal by an enzyme label.
In the next assay the test system is CTL 495. Briefly: IFN-γ ELISPOT with Tp9-specific CTL line 495. It is filed as cell-based, cattle. As to conditions: for IFN-γ ELISPOT stimulation of CTL 495, in words: Supplemental Fig. 1, minimal epitope peptides, relatively high peptide concentration; for IFN-γ ELISPOT response of CTL 495 vs Tp9_67–75 Muguga, in words: Fig. 3A, alanine/glycine-substituted peptides, 2.5 × 10^4 CD8+ cells/well, 20 h 37°C, reduced = SFU >15% lower than Tp9_67–75. An excerpt: (§1) Autologous T. parva Muguga-infected lymphocyte (TpM) lines from animals BF092, 4003, and 495 and TpM-specific bulk CTLs lines after immunization by ITM were established as previously described ([37]). In brief, PBMCs harvested from immunized animals were stimulated at least three times, at weekly intervals, by coculturing with irradiated autologous T. parva–infected cells (TpMs) at a ratio of 5–10:1 (TpMs:PBMC) in RPMI media containing 15% T cell growth factor ([38]). Cells were maintained in RPMI 1640 culture medium (Sigma-Aldrich) containing 10% heat-inactivated FCS (Life Technologies), 2 mM L-glutamine (Sigma-Aldrich), 1 mg/ml gentamicin (Carl-Roth), 100 UI/ml penicillin (Sigma-Aldrich), 100 mg/ml streptomycin (Sigma-Aldrich), 2-ME (BDH, final concentration: 50 μM ([39]); a detailed description of our protocols can be found in Ref. [40]). The CTL lines from 4003 (A14 homozygous) and 495 (A10/A14 heterozygous) were propagated by stimulating them with cesium-137–irradiated autologous TpM (the use of radioisotope and irradiator was per institutional radiation safety guidelines; the length of exposure for inhibiting replication was empirically determined and found to be optimal with an exposure of 30 min at a distance of 10 cm of the cesium-137 source at 265 rad/min using a top linear irradiator [Conservatome, Lyon, France]), at a ratio of 1:5–10 (CTL:TpMs), and supplementing the media with 2 ng/ml recombinant human IL-2 (Sigma) or 15% T cell growth factor. Cells were incubated at 37°C in a 5% CO2 humidified atmosphere. Both CTLs recognize the Tp9 Ag. CTL clone 8 was derived from the CTL 495 by limiting dilution.
IFN-γ ELISPOT assay was performed as previously described ([34]). In brief, a monoclonal anti-bovine IFN-γ Ab (cat # MCA1783; Serotec, Oxford, U.K.) was incubated overnight at 4°C on ELISPOT plates (cat # MAIPN4550; Millipore, Billerica, MA, USA) and then blocked with RPMI containing 10% heat-inactivated FCS for 2 h at 37°C. Peptides (purity: 95%; Mimotopes) were added at concentrations ranging from 0.1 to 1 μM and CD8^+ cells at 2.5 × 10^4 cells/well. The plates were incubated at 37°C for 20 h. Release of IFN-γ was monitored with primary rabbit polyclonal anti-bovine IFN-γ Ab (Sigma-Aldrich, St. Louis, MO, USA) and secondary alkaline phosphatase–conjugated monoclonal anti-rabbit IgG (cat # A2556; Sigma-Aldrich, St. Louis, MO). Development of plates was done by addition of the substrate solution Sigma Fast (BCIP/NBT, cat # B5655-25TAB; Sigma-Aldrich, St. Louis, MO). Plates were read using an automated ELISPOT reader (AID Classic ELISpot Reader).
Statistical analyses of data were performed with GraphPad Prism version 6 software. To determine the Kd, binding, and half-life values, we performed a nonlinear regression curve fit (One-Site, Specific binding). […]

Assay [2] relates to BoLA-1*023:01 class I molecule. Briefly: Peptide–MHC class I binding assay (ELISA of p-MHC monomer folding). Also on record: species or system bovine. As to conditions: for Peptide binding to BoLA-1*023:01 (folding in ELISA), in words: Fig. 1B, 10-mer and peptides with 1 or 2 aa deletions at N- or C-terminal end; for pKd: 25 nM BoLA-1*023:01, 150 nM bovine β2m, peptide 0–40 μM, 48 h 18°C, one-site specific binding fit, representative experiment, duplicates. The protocol:
Folding of p-MHC class I complexes was assessed with an ELISA assay as described by Svitek et al. ([34]). The BoLA-1*023:01 molecule (25 nM) and bovine β2m molecule (150 nM) were incubated in a 96-well plate with Tp9_67–75 (Muguga, G1 to A9, or V2 to V9) peptides (Mimotopes, purity: 95%) at various peptide concentrations ranging from 0 to 40 μM. After an incubation of 48 h at 18°C, the complexes were transferred to another 96-well plate precoated with streptavidin (catalog number [cat #] 436014; Nunc), which captures biotinylated heavy chains, and incubated for 3 h at 4°C. After washing, the W6/32 mAb (cat # SC-32235; Santa Cruz Biotechnology, TX), which binds to a monomorphic epitope on β2m, but only when it is incorporated in p-MHC class I complexes, was added for 1 h at 4°C. After washing, anti-mouse IgG coupled to peroxidase (cat # A9917-1ML; Sigma-Aldrich) was added to the plate followed by incubation for an hour at room temperature and further rounds of washes. Colorimetric change was performed by adding the TMB Plus2 “Ready to Use” Substrate (cat # 4395H; Kem En Tec) for 10 min at room temperature. The reaction was stopped by adding H2SO4 (0.3 M), and OD was measured using a Synergy HT ELISA plate reader (BioTek) at 450 nm. Kd values were determined by performing a nonlinear regression curve fit (One-Site Specific Binding) with GraphPad Prism (version 6).
Statistical analyses of data were performed with GraphPad Prism version 6 software. To determine the Kd, binding, and half-life values, we performed a nonlinear regression curve fit (One-Site, Specific binding). R^2 values and confidence intervals were generated to assess curve fit and differences between Kd values. When comparing data generated with the ELISPOT assay with a single peptide concentration, we performed a one-way ANOVA with Dunnett’s correction for multiple comparison. When comparing data generated with the ELISPOT assay with varying peptide concentrations, we performed a two-way ANOVA with Dunnett’s correction for multiple comparison (main column effect). All datasets were compared with the data obtained with the Tp9_67–75 Muguga epitope. All experiments were repeated twice using duplicate measurements.

The target of assay [3] is BoLA-1*023:01 MHC class I molecule with bovine β2-microglobulin (bovine) (UniProt P01888). Briefly: ELISA. The source holds these as a separate data set.
For the next assay, the system named is CTL 4003. Kind of assay: IFN-γ ELISPOT with Tp9-specific CTL line 4003. The following applies: Fig. 3A; alanine/glycine-substituted peptides; 2.5 × 10^4 CD8+ cells/well, 20 h 37°C; reduced = SFU >15% lower than Tp9_67–75. It counts as cell-based, cattle.
From the text: as §1, with “Cells were maintained in RPMI 1640 culture medium (Sigma-Aldrich) containing 10% heat-inactivated FCS (Life Technologies), 2 mM L-glutamine (Sigma-Aldrich), 1 mg/ml gentamicin (Carl-Roth), 100 UI/ml penicillin (Sigma-Aldrich), 100 mg/ml streptomycin (Sigma-Aldrich), 2-ME (BDH, final concentration: 50 μM ([39]); a detailed description of our protocols can be found in Ref. [40]).” left out, “Cells were incubated at 37°C in a 5% CO2 humidified atmosphere. Both CTLs recognize the Tp9 Ag. CTL clone 8 was derived from the CTL 495 by limiting dilution.” left out
IFN-γ ELISPOT assay was performed as previously described ([34]). […] Release of IFN-γ was monitored with primary rabbit polyclonal anti-bovine IFN-γ Ab (Sigma-Aldrich, St. Louis, MO, USA) and secondary alkaline phosphatase–conjugated monoclonal anti-rabbit IgG (cat # A2556; Sigma-Aldrich, St. Louis, MO). […]

The substance “Tp9A5 peptide (Tp9_(67–75) Muguga with alanine at position 5)” gave a negative logarithm of the Kd (pKd) in assay [1] of 7.64.

For the substance “Tp9G1 peptide (Tp9_(67–75) Muguga with glycine at position 1)”, in assay [1], the pKd was 7.87.

For the substance “AKFPGMKK [Tp9_67–74, 8-mer Tp9 peptide with 2 aa deleted at the C-terminal end]”, the “IFN-γ ELISPOT stimulation of CTL 495, in words” value in the assay on CTL 495 was “capacity to stimulate”. Further, the “Peptide binding to BoLA-1*023:01 (folding in ELISA), in words” value in assay [2] is recorded as “showed binding”.

On to “AKFPGMKKSK [Tp9_67–76, 10-mer peptide from the T. parva (Muguga) Tp9 Ag]”, for which, in the assay with CTL 495, the “IFN-γ ELISPOT stimulation of CTL 495, in words” value is recorded as “capacity to stimulate”. The “Peptide binding to BoLA-1*023:01 (folding in ELISA), in words” value in assay [2] was “showed binding”.

In assay [1], “Tp9A7 peptide (Tp9_(67–75) Muguga with alanine at position 7)” had a pKd of 8.00.

“Tp9A6 peptide (Tp9_(67–75) Muguga with alanine at position 6)” showed a negative-log Kd (pKd) in assay [1] of 7.78.

Turning to Tp9_(67–75) Muguga epitope peptide, the negative logarithm of the Kd (pKd) is 7.53 in assay [3] and 7.86 in assay [1].

In assay [1], BoLA-1*023:01 control peptide showed a negative logarithm of the Kd (pKd) of 8.16.

On to “Tp9A3 peptide (Tp9_(67–75) Muguga with alanine at position 3)”, for which the pKd in assay [1] is 7.06.

As for “FPGMKKSK [Tp9_69–76, Tp9 peptide with 2 aa deleted at the N-terminal end]”, the “Peptide binding to BoLA-1*023:01 (folding in ELISA), in words” value in assay [2] was “no folding can be measured”.

“KFPGMKKSK [Tp9_68–76, Tp9 peptide with 1 aa deleted at the N-terminal end]”: the “Peptide binding to BoLA-1*023:01 (folding in ELISA), in words” value in assay [2] is reported as “no folding can be measured”.

The substance “Tp9A9 peptide (Tp9_(67–75) Muguga with alanine at position 9)” had a pKd in assay [1] of 7.82.

Substance “Tp9A2 peptide (Tp9_(67–75) Muguga with alanine at position 2)” showed a pKd in assay [1] of 6.72.

Regarding “Tp9G1: Tp9_67–75 Muguga with glycine at position 1 (GKFPGMKKS)”, in the assay with CTL 495, the “IFN-γ ELISPOT response of CTL 495 vs Tp9_67–75 Muguga, in words” value is “enhanced stimulation”. Also, in the assay on CTL 4003, the “IFN-γ ELISPOT response of CTL 4003 vs Tp9_67–75 Muguga, in words” value was “enhanced stimulation”. In addition, the pKd in assay [2] (Fig. 2 upper panel, alanine/glycine-substituted Tp9_67–75) was 7.87.

Substance “Tp9A8 peptide (Tp9_(67–75) Muguga with alanine at position 8)” had a negative-log Kd (pKd) in assay [1] of 8.59.

Take “Tp9A9: Tp9_67–75 Muguga with alanine substitution at position 9 (AKFPGMKKA)”: the “IFN-γ ELISPOT response of CTL 495 vs Tp9_67–75 Muguga, in words” value with CTL 495 is reported as “enhanced stimulation”. For the same substance, in the assay on CTL 4003, the “IFN-γ ELISPOT response of CTL 4003 vs Tp9_67–75 Muguga, in words” value was “enhanced stimulation”. For the same substance, the pKd in assay [2] (Fig. 2 lower panel, alanine-substituted Tp9_67–75) was 7.82.

In the case of “Tp9A4 peptide (Tp9_(67–75) Muguga with alanine at position 4)”, the negative logarithm of the Kd (pKd) in assay [1] was 7.55.
